Earlier results, collected in PMC10449480.
pKd: −log10 of the molar value.

Molecular target: tryptophanyl-tRNA synthetase (Geobacillus stearothermophilus) (UniProt P00953)

In the case of “tryptophanyl-tRNA synthetase (from UniProt P00953)”, the pKd is listed as 8.30.
